Patent US20210179666A1 (REGENTS OF THE UNIVERSITY OF MINNESOTA, published 2021)
Read-outs that look alike come from different tables or passages of the source. Numbered stars: 1 amine (or outer) side, 2 acyl side, 3 side chain; on linkers, the order of the positions; unused ones are H or OH. Square brackets hold non-standard residues; d marks the D form. N(2-Aminoethyl)Gly = O=C(CN(CCN[*:3])[*:1])[*:2]; Gly(N-(CH2)3-guanidino) = N=C(N)NCCCNCC(=O)O; Nphe = O=C(O)CNCc1ccccc1; Dap = NC[C@H](N)C(=O)O; Sar = CNCC(=O)O

How the values were obtained:
[1] = target: T1, mouse melanocortin 3 receptor (mouse, UniProt P33033 1-323); assay: cell-based or functional assay
T1 sequence (P33033 whole entry): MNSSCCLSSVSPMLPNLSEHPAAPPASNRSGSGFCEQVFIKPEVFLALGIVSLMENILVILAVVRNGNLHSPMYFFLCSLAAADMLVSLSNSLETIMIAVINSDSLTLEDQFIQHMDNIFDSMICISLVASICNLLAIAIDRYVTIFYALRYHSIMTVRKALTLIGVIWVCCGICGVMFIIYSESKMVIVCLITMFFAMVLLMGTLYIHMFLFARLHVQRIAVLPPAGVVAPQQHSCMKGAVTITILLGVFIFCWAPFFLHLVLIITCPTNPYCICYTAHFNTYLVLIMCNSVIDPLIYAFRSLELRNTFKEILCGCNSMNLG

[2] = target: T2, mouse melanocortin 5 receptor (mouse, UniProt P41149 1-325); assay: cell-based or functional assay
T2 sequence (P41149 whole entry): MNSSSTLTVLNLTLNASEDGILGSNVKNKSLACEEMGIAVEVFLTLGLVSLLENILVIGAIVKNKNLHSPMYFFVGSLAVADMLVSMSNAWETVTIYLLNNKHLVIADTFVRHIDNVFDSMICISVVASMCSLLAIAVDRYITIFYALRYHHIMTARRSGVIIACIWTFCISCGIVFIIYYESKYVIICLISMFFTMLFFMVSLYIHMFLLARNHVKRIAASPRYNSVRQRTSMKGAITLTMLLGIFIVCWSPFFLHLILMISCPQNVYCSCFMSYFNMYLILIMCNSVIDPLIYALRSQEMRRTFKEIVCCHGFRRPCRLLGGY

[3] = target: T3, mouse melanocortin 1 receptor (mouse, UniProt Q01727 1-315); assay: cell-based or functional assay
T3 sequence (Q01727 whole entry): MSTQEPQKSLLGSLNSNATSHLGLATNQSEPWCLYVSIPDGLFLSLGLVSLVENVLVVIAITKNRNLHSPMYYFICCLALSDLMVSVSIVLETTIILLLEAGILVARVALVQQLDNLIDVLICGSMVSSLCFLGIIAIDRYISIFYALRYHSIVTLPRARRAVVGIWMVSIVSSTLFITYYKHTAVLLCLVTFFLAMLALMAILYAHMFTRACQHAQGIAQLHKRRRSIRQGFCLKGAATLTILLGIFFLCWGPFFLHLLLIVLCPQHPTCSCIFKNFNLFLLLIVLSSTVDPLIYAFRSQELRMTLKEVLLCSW

[4] = target: T4, mouse melanocortin 4 receptor (mouse, UniProt P56450 1-332); assay: cell-based or functional assay
T4 sequence (P56450 whole entry): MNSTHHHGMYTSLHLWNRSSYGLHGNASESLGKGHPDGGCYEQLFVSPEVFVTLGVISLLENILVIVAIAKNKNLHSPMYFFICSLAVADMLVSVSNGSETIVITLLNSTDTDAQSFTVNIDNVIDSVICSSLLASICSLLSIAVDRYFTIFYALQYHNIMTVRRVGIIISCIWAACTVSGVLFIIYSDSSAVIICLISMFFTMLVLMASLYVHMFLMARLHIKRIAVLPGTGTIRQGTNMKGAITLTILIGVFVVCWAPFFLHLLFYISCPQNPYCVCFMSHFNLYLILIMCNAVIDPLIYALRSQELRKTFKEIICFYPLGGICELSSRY

[5] = target: T2, mouse melanocortin 5 receptor; assay: 125I-NDP-MSH competition, HEK293 cells
[6] = target: T3, mouse melanocortin 1 receptor; assay: 125I-NDP-MSH competition, HEK293 cells
[7] = target: T1, mouse melanocortin 3 receptor; assay: cell-based or functional assay; remark: listed apart in the source
[8] = target: T2, mouse melanocortin 5 receptor; assay: cell-based or functional assay; remark: listed apart in the source
[9] = target: T4, mouse melanocortin 4 receptor; assay: cell-based or functional assay; remark: listed apart in the source
[10] = target: T3, mouse melanocortin 1 receptor; assay: cell-based or functional assay; remark: listed apart in the source
[11] = target: T1, mouse melanocortin 3 receptor; assay: 125I-NDP-MSH competition, HEK293 cells
[12] = target: T5, human melanocortin 4 receptor (human, UniProt P32245 1-332); assay: 125I-NDP-MSH competition, HEK293 cells
T5 construct: whole, on cells; the assays used the receptor on HEK293 cells; also called hMC4R
T5 sequence (P32245 whole entry): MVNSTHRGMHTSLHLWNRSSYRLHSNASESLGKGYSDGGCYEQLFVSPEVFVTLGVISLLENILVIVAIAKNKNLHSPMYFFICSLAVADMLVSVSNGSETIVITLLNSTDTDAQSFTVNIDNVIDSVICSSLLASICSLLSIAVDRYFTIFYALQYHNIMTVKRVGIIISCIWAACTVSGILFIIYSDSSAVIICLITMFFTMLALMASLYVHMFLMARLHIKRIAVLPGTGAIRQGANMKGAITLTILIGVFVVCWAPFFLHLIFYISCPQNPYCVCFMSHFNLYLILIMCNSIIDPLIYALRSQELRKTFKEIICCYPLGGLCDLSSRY

[13] = target: T5, human melanocortin 4 receptor; assay: cell-based or functional assay
[14] = target: T4, mouse melanocortin 4 receptor; assay: 125I-NDP-MSH competition, HEK293 cells
[15] = target: T5, human melanocortin 4 receptor; assay: 125I-NDP-MSH competition; fold vs SEQ ID NO: 2 control
[16] = target: T1, mouse melanocortin 3 receptor; assay: as above
[17] = target: T4, mouse melanocortin 4 receptor; assay: as above
[18] = target: T3, mouse melanocortin 1 receptor; assay: as above
[19] = target: T4, mouse melanocortin 4 receptor; assay: 125I-NDP-MSH competition; fold vs SEQ ID NO: 1 control
[20] = target: T5, human melanocortin 4 receptor; assay: as above

B1: MDE8-108-3c (peptide)
peptide: PRFFXAFP
modifications: head-to-tail cyclic; NArg (N-(3-guanidino-propyl)-glycine) at 2; Dap at 5; DPro at 8
- EC50 (cAMP agonist) [1]: > 100 µM
- pA2 (Schild analysis, agonist NDP-MSH, cAMP) [1]: 5.9
- EC50 (cAMP agonist) [2]: > 100 µM
- EC50 (cAMP agonist) [3]: > 100000 nM

B2: MDE7-26-4c (peptide)
peptide: cyclo(PRFFN[Sar]F[dP])
SMILES: CN1CC(=O)N[C@@H](Cc2ccccc2)C(=O)N2CCC[C@@H]2C(=O)N2CCC[C@H]2C(=O)N[C@@H](CCCNC(=N)N)C(=O)N[C@@H](Cc2ccccc2)C(=O)N[C@@H](Cc2ccccc2)C(=O)N[C@@H](CC(N)=O)C1=O
- pA2 (Schild analysis, agonist NDP-MSH, cAMP) [4]: < 5.5
- EC50 (cAMP agonist) [3]: 1000 nM

Binder: PRFFXAFP (head-to-tail cyclic; Dap at 5; NAla (N-methylglycine) at 6; DPro at 8) [MDE8-108-6c]
- EC50 (cAMP agonist) [1]: > 100 µM
- pA2 (Schild analysis, agonist NDP-MSH, cAMP) [1]: 5.6
- EC50 (cAMP agonist) [2]: > 100 µM
- pA2 (Schild analysis, agonist NDP-MSH, cAMP) [4]: 6.1
- EC50 (cAMP agonist) [3]: > 100000 nM

Binder: cyclo(PRFF[N(2-Aminoethyl)Gly]AF[dP]) [MDE9-111c]
- EC50 (cAMP agonist) [1]: > 100 µM
- pA2 (Schild analysis, agonist NDP-MSH, cAMP) [1]: 6.9
- Inverse Agonist, percent decrease from basal (cAMP) [2]: -10%
- percent maximal stimulatory response at 100 µM (cAMP) [3]: 60%

Binder: cyclo(PRF[Nphe]NAF[dP]) [MDE9-88c]
- pA2 (Schild analysis, agonist NDP-MSH, cAMP) [4]: 8.4
- EC50 (cAMP partial agonist) [3]: 5600 nM
- Partial Agonist, percent of NDP-MSH (cAMP) [3]: 70%

Binder: PRFFXAFP (head-to-tail cyclic; Dap at 5; NPhe (N-benzylglycine) at 7; DPro at 8) [MDE8-108-7c]
- EC50 (cAMP agonist) [1]: > 100 µM
- Inverse Agonist, percent decrease from basal (cAMP) [2]: -10%
- pA2 (Schild analysis, agonist NDP-MSH, cAMP) [4]: 6.6
- EC50 (cAMP agonist) [3]: > 100000 nM

B3: 2 (MDE 6-82-1c) (peptide)
peptide: PRFFXAFP
modifications: head-to-tail cyclic; Dap (diaminopropionic acid) at 5; DPro at 8
notes: Dap5 parent scaffold; assayed as TFA salt; also called Compound 2; c[Pro-Arg-Phe-Phe-Dap-Ala-Phe-DPro]
- IC50 [5]: 1700 nM
- IC50 [6]: 5.2 µM
- pA2 (Schild analysis, agonist NDP-MSH, cAMP) [1]: 6.5
- percent maximal stimulatory response at 100 µM (cAMP) [1]: 20%
- Inverse Agonist, percent decrease from basal (cAMP) [2]: -10%
- percent maximal stimulatory response at 100 µM (cAMP) [3]: 36%

B4: ZMK 2-85 (peptide)
peptide: cyclo(PRFF[Dap]VF[dP])
notes: Ala115Val SNP in the Dap scaffold; also called c[Pro-Arg-Phe-Phe-Dap-Val-Phe-DPro]
- pA2 (Schild analysis, agonist NDP-MSH, cAMP) [7]: 6.1
- percent maximal stimulatory response at 100 µM (cAMP) [7]: 27%
- EC50 (cAMP agonist) [8]: > 100 µM
- pA2 (Schild analysis, agonist NDP-MSH, cAMP) [8]: 6.3
- percent maximal stimulatory response at 100 µM (cAMP) [9]: 37%
- percent maximal stimulatory response at 100 µM (cAMP) [10]: 79%
- IC50 [11]: 10 µM
- IC50 [5]: 2700 nM
- IC50 [6]: 8 µM
- IC50 [12]: 0.0322 µM
- pA2 (Schild analysis, agonist NDP-MSH, cAMP) [13]: 7.6

B5: ZMK 3-20 (peptide)
peptide: cyclo(PCFF[Dap]AF[dP])
notes: Arg111Cys SNP in the Dap scaffold; also called c[Pro-Cys-Phe-Phe-Dap-Ala-Phe-DPro]
- pA2 (Schild analysis, agonist NDP-MSH, cAMP) [7]: < 5
- percent maximal stimulatory response at 100 µM (cAMP) [7]: 29%
- EC50 (cAMP agonist) [8]: > 100 µM
- pA2 (Schild analysis, agonist NDP-MSH, cAMP) [9]: < 5
- percent maximal stimulatory response at 100 µM (cAMP) [9]: 42%
- EC50 (cAMP agonist) [10]: 4 µM
- IC50 [11]: 49 µM
- IC50 [14]: 10 µM
- IC50 [6]: 33 µM
- IC50 [12]: 15.7 µM
- Fold Diff [15]: 2100 fold
- pA2 (Schild analysis, agonist NDP-MSH, cAMP) [13]: < 5
- Fold Diff [16]: 15 fold
- Fold Diff [17]: 5200 fold
- Fold Diff [18]: 6 fold

B6: 1 (MDE 6-82-3c) (peptide)
peptide: cyclo(PRFFNAF[dP])
modifications: also: assayed as TFA salt
notes: AgRP 111-116 loop cyclized through DPro-Pro; Asn5 parent scaffold; assayed as TFA salt; also called Compound 1; c[Pro-Arg-Phe-Phe-Asn-Ala-Phe-DPro]
- IC50 [6]: 9 µM

B7: ZMK 2-96 (peptide)
peptide: cyclo(PHFFNAF[dP])
notes: Arg111His SNP in the Asn scaffold; also called c[Pro-His-Phe-Phe-Asn-Ala-Phe-DPro]
- EC50 (cAMP agonist) [7]: > 100 µM
- pA2 (Schild analysis, agonist NDP-MSH, cAMP) [7]: < 5
- EC50 (cAMP agonist) [8]: > 100 µM
- EC50 (cAMP agonist) [9]: > 100 µM
- pA2 (Schild analysis, agonist NDP-MSH, cAMP) [9]: 5.3
- percent maximal stimulatory response at 100 µM (cAMP) [10]: 23%
- IC50 [14]: 6.7 µM
- IC50 [12]: 22 µM
- Fold Diff [19]: 300 fold
- pA2 (Schild analysis, agonist NDP-MSH, cAMP) [13]: 5.8
- Fold Diff [20]: 300 fold

B8: ZMK 2-110 (peptide)
peptide: cyclo(PRYFNAF[dP])
notes: Phe112Tyr SNP in the Asn scaffold; also called c[Pro-Arg-Tyr-Phe-Asn-Ala-Phe-DPro]
- EC50 (cAMP agonist) [7]: > 100 µM
- pA2 (Schild analysis, agonist NDP-MSH, cAMP) [7]: 5.8
- EC50 (cAMP agonist) [9]: > 100 µM
- pA2 (Schild analysis, agonist NDP-MSH, cAMP) [9]: 6.1
- EC50 (cAMP agonist) [10]: > 100 µM
- IC50 [14]: 2 µM
- IC50 [12]: 14.3 µM
- Fold Diff [19]: 100 fold
- pA2 (Schild analysis, agonist NDP-MSH, cAMP) [13]: 6.5
- Fold Diff [20]: 2000 fold

Binder: cyclo(PR[Nphe]FNAF[dP]) [MDE9-77c]
- pA2 (Schild analysis, agonist NDP-MSH, cAMP) [4]: < 5.5
- EC50 (cAMP agonist) [3]: 240 nM

Binder: PRFFXAFP (head-to-tail cyclic; NPhe (N-benzylglycine) at 3; Dap at 5; DPro at 8) [MDE9-32c]
- EC50 (cAMP agonist) [1]: > 100 µM
- pA2 (Schild analysis, agonist NDP-MSH, cAMP) [1]: 6.9
- EC50 (cAMP partial agonist) [2]: 550 nM
- Partial Agonist, percent of NDP-MSH (cAMP) [2]: 70%
- EC50 (cAMP partial agonist) [3]: 110 nM
- Partial Agonist, percent of NDP-MSH (cAMP) [3]: 80%

Binder: cyclo(PRFFNA[Nphe][dP]) [MDE7-26-5c]
- percent maximal stimulatory response at 100 µM (cAMP) [1]: 60%
- pA2 (Schild analysis, agonist NDP-MSH, cAMP) [4]: < 5.5
- percent maximal stimulatory response at 100 µM (cAMP) [3]: 85%

Binder: PRFFXAFP (head-to-tail cyclic; NPhe (N-benzylglycine) at 4; Dap at 5; DPro at 8) [MDE9-93c]
- EC50 (cAMP agonist) [1]: > 100 µM
- pA2 (Schild analysis, agonist NDP-MSH, cAMP) [1]: 7.1
- Inverse Agonist, percent decrease from basal (cAMP) [2]: -10%
- EC50 (cAMP partial agonist) [3]: 2700 nM
- Partial Agonist, percent of NDP-MSH (cAMP) [3]: 60%

B9: MDE7-26-1c (peptide)
peptide: cyclo(P[Gly(N-(CH2)3-guanidino)]FFNAF[dP])
SMILES: C[C@@H]1NC(=O)[C@H](CC(N)=O)NC(=O)[C@H](Cc2ccccc2)NC(=O)[C@H](Cc2ccccc2)NC(=O)CN(CCCNC(=N)N)C(=O)[C@@H]2CCCN2C(=O)[C@H]2CCCN2C(=O)[C@H](Cc2ccccc2)NC1=O
- pA2 (Schild analysis, agonist NDP-MSH, cAMP) [4]: < 5.5
- EC50 (cAMP partial agonist) [3]: 3100 nM
- Partial Agonist, percent of NDP-MSH (cAMP) [3]: 50%
